Biological target: SARS-CoV-2 wildtype spike antigen of the SPR column (construct not stated) (SARS-CoV-2)
Assay: SPR

B1: YB9-258 (antibody, V domains shown)
VH: EVQLVESGGGLIQPGGSLRLSCAASGLTVSSNYMHWVRQAPGKGLEWVSVLYAGGSAFYADSVKGRFTISRNNSKNTLYLQMNSLRAEDTAIYYCARGLGDYLDSWGQGTLVTVSS
VL: DIQMTQSPSSVSASVGDRVTITCRASQGIGSWLAWYQQKPGKAPQLLIYAASTLQSGVPPRFSGSGSGTDFTLTITSLQPEDFASYYCQQANSVLALTFGGGTKVEIK
  Kd: 0.18 nM

— PMC9951844
